The text below walks through data of patent publication US20100311820, “NUCLEIC ACID MODULATORS OF GLYCOPROTEIN VI” (Regado Biosciences, Inc, published 2010).

The target in data set [1] is T1, Glycoprotein VI extracellular domain (Gln21-Lys267) (Homo sapiens, UniProt Q9HCN6 SEQ:1-247).
T1 chain: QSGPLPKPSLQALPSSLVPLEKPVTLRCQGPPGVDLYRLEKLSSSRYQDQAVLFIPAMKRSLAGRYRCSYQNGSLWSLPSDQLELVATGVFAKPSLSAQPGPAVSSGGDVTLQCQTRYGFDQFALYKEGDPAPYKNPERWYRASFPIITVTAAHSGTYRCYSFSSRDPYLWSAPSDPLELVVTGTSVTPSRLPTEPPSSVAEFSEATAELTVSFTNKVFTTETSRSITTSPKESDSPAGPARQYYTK
As to the kind of experiment: filter; text: family range about 11 to 50 nM, EF-1 lowest affinity. As to conditions: tags: C-terminal His6; R&D Systems 3627-GP; label: 5'-32P. The procedure: (§1) Enrichment of the ligand libraries for GPVI was monitored in direct binding studies utilizing radiolabeled ligand RNA from respective rounds of SELEX and soluble GPVI. Binding studies were performed with trace P³² end-labeled RNA added to serial dilutions of GPVI in Binding Buffer F. To prepare radiolabeled RNAs for binding studies, one hundred picomoles of RNA was dephosphorylated with Bacterial Alkaline Phopshatase at 50° C. for 1 hour. The reaction was phenol:chloroform:isoamyl alcohol (25:24:1) extracted, chloroform: isoamyl:alcohol (24:1) extracted, and ethanol precipitated. Three pmoles of dephosphorylated RNA was end labeled with T4 Poylnucleotide Kinase with supplied buffer, and 20 μCi of γ-P³²-ATP and subsequently cleaned with a Biorad MicroBio Spin P-30 spin column. End-labeled RNA was diluted to a final concentration of 2000 cpm/μL and heat denatured at 65° C. for 5 minutes. […] The membranes were exposed to a phosphorimager screen, scanned, and quantitated with a Molecular Dynamics Storm 840 Phosphorimager. The fraction bound was calculated by dividing the counts on the nitrocellulose by the total counts and adjusting for the background. […]
(§2) The affinity of each of the anti-GPVI ligands for GPVI was determined by direct binding studies using radiolabeled trace ligand RNA and soluble GPVI, per the binding methodology described above in Example 1.

Data set [2] concerns the target T1, Glycoprotein VI extracellular domain …. The experiment in a line: filter; buffer F, 37 C. As to conditions: tags: C-terminal His6; R&D Systems 3627-GP; label: 5'-32P.
Data set [3] has the same target. The experiment in a line: competition; competition with radiolabeled parent ligand. As to conditions: tags: C-terminal His6; R&D Systems 3627-GP.
Data set [4] has the same target. As to the kind of experiment: competition; competition with radiolabeled parent. The note with it: tags: C-terminal His6; R&D Systems 3627-GP.
Data set [5] shares this target. The experiment in a line: filter; text p359 names it EF-3 T2mut8. As to conditions: tags: C-terminal His6; R&D Systems 3627-GP; label: 5'-32P. The method, then: as §1, with “minutes. RNA and GPVI dilutions were equilibrated at 37° C. prior to use. RNA (5 μL) was added to varying concentrations of GPVI (15 μL) at 37° C. and incubated together for 5 to 15 minutes.” for “minutes.”

Data set [6] has the same target. As to the kind of experiment: filter; text p359 names it EF-3 T2 mut9. The note with it: tags: C-terminal His6; R&D Systems 3627-GP; label: 5'-32P. The method, then: as §1, with “minutes. RNA and GPVI dilutions were equilibrated at 37° C. prior to use. RNA (5 μL) was added to varying concentrations of GPVI (15 μL) at 37° C. and incubated together for 5 to 15 minutes.” for “minutes.”

The target is the same in data set [7]. As to the kind of experiment: filter; text p359 names it EF-3 T2mut10. As to conditions: tags: C-terminal His6; R&D Systems 3627-GP; label: 5'-32P. The procedure: as §1, with “minutes. RNA and GPVI dilutions were equilibrated at 37° C. prior to use. RNA (5 μL) was added to varying concentrations of GPVI (15 μL) at 37° C. and incubated together for 5 to 15 minutes.” for “minutes.”

Data set [8] shares this target. As to the kind of experiment: filter; binding comparable with and without annealed 3' primer. The note with it: tags: C-terminal His6; R&D Systems 3627-GP; label: 5'-32P; 3' fixed region paired with DNA primer. The procedure: The reaction was phenol:chloroform:isoamyl alcohol (25:24:1) extracted, chloroform: isoamyl:alcohol (24:1) extracted, and ethanol precipitated. Three pmoles of dephosphorylated RNA was end labeled with T4 Poylnucleotide Kinase with supplied buffer, and 20 μCi of γ-P³²-ATP and subsequently cleaned with a Biorad MicroBio Spin P-30 spin column. End-labeled RNA was diluted to a final concentration of 2000 cpm/μL and heat denatured at 65° C. for 5 minutes. RNA and GPVI dilutions were equilibrated at 37° C. prior to use. RNA (5 μL) was added to varying concentrations of GPVI (15 μL) at 37° C. and incubated together for 5 to 15 minutes. The complexed RNA/GPVI protein mixture was then loaded over a Protean BA85 nitrocellulose membrane, overlayed on a Genescreen Plus Nylon membrane, in a 96 well vacuum manifold system with washing. The membranes were exposed to a phosphorimager screen, scanned, and quantitated with a Molecular Dynamics Storm 840 Phosphorimager. The fraction bound was calculated by dividing the counts on the nitrocellulose by the total counts and adjusting for the background. Results for binding of enriched ligand libraries from round 10 E2 and round 10 EF of the SELEX as compared to the GPVI-naïve starting ligand library are shown in FIG. 3. […]

Data set [9] has the same target. The experiment in a line: filter; buffer F, 37 C. As to conditions: tags: C-terminal His6; R&D Systems 3627-GP; label: 5'-32P. The procedure:
as §1, §2

For data set [10] the target is unchanged. As to the kind of experiment: filter; p374 states 2-4 nM; buffer F (150 mM NaCl, 2 mM CaCl2), 37 C. As to conditions: tags: C-terminal His6; R&D Systems 3627-GP; label: 5'-32P. The method, then: as §1, with “minutes. RNA and GPVI dilutions were equilibrated at 37° C. prior to use. RNA (5 μL) was added to varying concentrations of GPVI (15 μL) at 37° C. and incubated together for 5 to 15 minutes.” for “minutes.”

The target is the same in data set [11]. The experiment in a line: competition; 5' linker ligands assayed by competition. As to conditions: tags: C-terminal His6; R&D Systems 3627-GP.
Data set [12] has the same target. The experiment in a line: filter; equivalent to full-length EF-1. The note with it: tags: C-terminal His6; R&D Systems 3627-GP; label: 5'-32P. The method, then:
as §1, with “minutes. RNA and GPVI dilutions were equilibrated at 37° C. prior to use. RNA (5 μL) was added to varying concentrations of GPVI (15 μL) at 37° C. and incubated together for 5 to 15 minutes.” for “minutes.”

B1: EF-1 (RB424) (ssRNA)
RNA: GGGAGGACGAUGCGGCAAUCGAAGCUGCAUCCAGCGUAAGCCUUCCAGGGAUCGUCAGACGACUCGCUGAGGAUCCGAGA
modifications: 2'-F C and U; 2'-OH A and G
On to B1, for which, in data set [1], the Kd – broadly, a measure of binding affinity in units of concentration – was greater than 40 nM.

Turning to GGAGGACGGCGCGCCUGGCAUAAGCCUCC (ssRNA, RB540 with PS G8-G9) [RB549], in [2], the Kd is roughly 6.48 nM.

Take GGAGGACGGCGCGCCUGGCAUAAGCCUCC (ssRNA, RB567 with 5' branched 40 kDa PEG) [RB571]: the Kd in data set [3] was roughly 5 nM.

Consider GGAGGACGGCGCGCCUGGCAUAAGCCUCC (ssRNA, RB542 with 5' branched 40 kDa PEG) [RB570], for which the Kd in data set [4] turned out to be 15.5 nM.

In the case of GGGAGGACGGCGAUCACACGCCUGGCGUAAGCCUCCC (ssRNA, 2'-F C and U; 2'-OH A and G) [EF-3 T5 mut8], binding in [5] was characterised by a dissociation constant (Kd) of 15.5 nM.

Take GGGAGGACGGCGAUCACACGCCUUGCAUAAGCCUCCC (ssRNA, 2'-F C and U; 2'-OH A and G) [EF-3 T5 mut9]: in data set [6], the Kd was determined as 15.5 nM.

On to GGGAGGACGGCGAUCACACGCCUGGCAUAAGCCUCCC (ssRNA, 2'-F C and U; 2'-OH A and G) [EF-3 T5 mut10], for which the Kd in [7] was found to be 15.5 nM.

B2: EF-3 annealed to 3' DNA primer (mixed)
RNA: GGGAGGACGAUGCGGAUCACACCGCGUCUUGCGUAAGCCUCCUACUAACGGAUCGCAGACGACUCGCUGAGGAUCCGAGA
DNA: TCTCGGATCCTCAGCGAGTCGTCTG
modifications: RNA strand 2'-F C and U; 2'-OH A and G
As for B2, the binding result in data set [8] is listed as “binds”.

B3: EF-2 (RB427) (ssRNA)
RNA: GGGAGGACGAUGCGGUGCCAAAACACCCGUCUUGCAUAAGCCUCCUACGGCAACUCAGACGACUCGCUGAGGAUCCGAGA
modifications: 2'-F C and U; 2'-OH A and G
With B3, in [9], the Kd stood at 15.5 nM.

As to GGAGGACGGCGCGCCUGGCAUAAGCCUCC (ssRNA, RB540 with PS G8-G9 and G9-C10) [RB566], the Kd in data set [10] was roughly 2.45 nM.

GGGAGGACGGCGCUAACGCCUGGCAUAAGCCUCCC (ssRNA, 2'-F C and U; 2'-OH A and G; 3' idT) [RB448] registered a Kd in data set [2] of roughly 14.5 nM.

In data set [11], GGGAGGACGGCGCGCCUGGCAUAAGCCUCCC (ssRNA, RB490 with 5' hexylamino linker) [RB508] displayed a Kd of less than 10 nM.

In the case of GGGAGGACGGCGCGCCUGGCAUAAGCCUCCC (ssRNA, RB490 with 2'-OMe G6,C15,A21,A23,A24,G25) [RB520], the Kd in data set [2] was roughly 6 nM.

For GGGAGGACGAUGCGGCAAUCGAAGCUGCAUCCAGCGUAAGCCUUCC (ssRNA, 2'-F C and U; 2'-OH A and G) [EF-1 T1 (RB426)], the Kd in [12] is greater than 40 nM.
